From paper PMC3903488, “Characterization of a Ginsenoside-Transforming β-glucosidase from Paenibacillus mucilaginosus and Its Application for Enhanced Production of Minor Ginsenoside F2” (PLoS ONE, 2014)

Tests used:
purified protein = substrate: O=[N+]([O-])c1ccc(O[C@@H]2O[C@H](CO)[C@@H](O)[C@H](O)[C@H]2O)cc1; assay: purified protein; conditions: 0.1-10.0 mM substrate, standard activity assay 50 mM sodium phosphate pH 7.5, 37 °C
[1] = substrate: CC(C)=CCC[C@](C)(O[C@@H]1O[C@H](CO[C@@H]2O[C@H](CO)[C@@H](O)[C@H](O)[C@H]2O)[C@@H](O)[C@H](O)[C@H]1O)[C@H]1CC[C@]2(C)[C@@H]1[C@H](O)C[C@@H]1[C@@]3(C)CC[C@H](O[C@@H]4O[C@H](CO)[C@@H](O)[C@H](O)[C@H]4O[C@@H]4O[C@H](CO)[C@@H](O)[C@H](O)[C@H]4O)C(C)(C)[C@@H]3CC[C@]12C; assay: initial velocity, non-linear regression; format: biochemical, Paenibacillus mucilaginosus; conditions: 0.2-5.0 mM substrate; assay buffer not given
Text: (§1) initial velocity, non-linear regression on BglPm

[2] = substrate: CC(C)=CCC[C@](C)(O[C@@H]1O[C@H](CO)[C@@H](O)[C@H](O)[C@H]1O)[C@H]1CC[C@]2(C)[C@@H]1[C@H](O)C[C@@H]1[C@@]3(C)CC[C@H](O[C@@H]4O[C@H](CO)[C@@H](O)[C@H](O)[C@H]4O[C@@H]4O[C@H](CO)[C@@H](O)[C@H](O)[C@H]4O)C(C)(C)[C@@H]3CC[C@]12C; assay: initial velocity, non-linear regression; format: biochemical, Paenibacillus mucilaginosus; conditions: 0.2-5.0 mM substrate; assay buffer not given
Text: as §1

B1: BglPm (Paenibacillus mucilaginosus 3016) (protein)
chain: EYIFPQQFMFGSATAAYQVEGNNTNSDFWAEEHAEGSPYQDKSGDAVDHYRLYREDIALMASLGLKAYRFSIEWARIEPAPGQFSLSAIAHYRDVLQACYEHRLTPVVAMHHFSSPQWLMRFGGWGSEEVPERFAKYCEFVFQELGDLIPYVLTFNEVNLPVMLREVFSSIGIIPPVGIDGAAWTAPGWRASAAQLCGTTADRYVTFHMISDEPKIALLMEAHRRARQTIKRLQPNAKVGLSMALSDIQSVPGGEAWAQQKWQQYFEQYLPALEGDDFFGLQNYTREVYGPEGRVTPAADAELTQMKYEYYPEALGQVIRKVAKALTLPIFVTEHGVATDDDERRIEFIRRGLQGVHACLEEGIDVRGYLHWTTFDNFEWNAGYSMRFGLIGVDRTTQERTVKESARYLGRIASTKVL
notes: expressed in E. coli BL21(DE3)
Km (purified protein): 3240 ± 390 µM
Vmax (purified protein): 10.2 µmol/min/mg
kcat (purified protein): 8.13 s⁻¹
kcat/Km (purified protein): 2560 M⁻¹ s⁻¹
Km [1]: 384 ± 64 µM
Vmax [1]: 0.369 µmol/min/mg
kcat [1]: 0.458 ± 0.018 s⁻¹
kcat/Km [1]: 1230 ± 250 M⁻¹ s⁻¹
Km [2]: 352 ± 53 µM
Vmax [2]: 0.484 µmol/min/mg
kcat [2]: 0.601 ± 0.066 s⁻¹
kcat/Km [2]: 1780 ± 460 M⁻¹ s⁻¹
